Data published in the supplement of paper PMC9112550, “Optimization of the antimicrobial peptide Bac7 by deep mutational scanning” (BMC Biology, 2022).

Test system: Escherichia coli TOP10
Assay: shrunken log2 fold change of peptide-encoding DNA abundance (4.5 h post-induction vs induction); higher = less antimicrobial activity (less host growth inhibition)
Settings: time post-induction: 4.5 h; library: site-saturation at positions 5, 18, 19, 20
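Note: peptides expressed intracellularly from a pBAD plasmid library in pooled LB shake-flask culture, induced with 0.3% L-arabinose, DNA abundance read by NGS, three biological replicates, DESeq2 with apeglm shrinkage.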

| Sequence | shrunken log2 fold change |
| --- | --- |
| RRIRERPPRLPRPRPRPKWLPRP | 0.226 |
| RRIRERPPRLPRPRPRPKYGPRP | -0.567 |
| RRIRERPPRLPRPRPRPKYKPRP | -0.369 |
| RRIRERPPRLPRPRPRPKYQPRP | -0.601 |
| RRIRERPPRLPRPRPRPLACPRP | -0.269 |
| RRIRERPPRLPRPRPRPLAPPRP | 0.101 |
| RRIRERPPRLPRPRPRPLCAPRP | -0.0485 |
| RRIRERPPRLPRPRPRPLDLPRP | -0.357 |
| RRIRERPPRLPRPRPRPLEPPRP | 0.0736 |
| RRIRERPPRLPRPRPRPLEVPRP | -0.166 |
| RRIRERPPRLPRPRPRPLFAPRP | -0.0197 |
| RRIRERPPRLPRPRPRPLFIPRP | -0.0618 |
| RRIRERPPRLPRPRPRPLHCPRP | 0.0821 |
| RRIRERPPRLPRPRPRPLHGPRP | -0.212 |
| RRIRERPPRLPRPRPRPLHTPRP | -0.674 |
| RRIRERPPRLPRPRPRPLIFPRP | -0.406 |
| RRIRERPPRLPRPRPRPLILPRP | -0.574 |
| RRIRERPPRLPRPRPRPLITPRP | -0.412 |
| RRIRERPPRLPRPRPRPLKEPRP | -0.0885 |
| RRIRERPPRLPRPRPRPLKNPRP | -0.477 |
| RRIRERPPRLPRPRPRPLKSPRP | -0.169 |
| RRIRERPPRLPRPRPRPLLFPRP | -0.121 |
| RRIRERPPRLPRPRPRPLLGPRP | -0.144 |
| RRIRERPPRLPRPRPRPLNPPRP | -0.0394 |
| RRIRERPPRLPRPRPRPLNSPRP | -0.432 |

| Sequence | shrunken log2 fold change |
| --- | --- |
| RRIRERPPRLPRPRPRPLPFPRP | -0.688 |
| RRIRERPPRLPRPRPRPLPIPRP | -0.0301 |
| RRIRERPPRLPRPRPRPLPLPRP | -0.0754 |
| RRIRERPPRLPRPRPRPLPNPRP | -0.658 |
| RRIRERPPRLPRPRPRPLQCPRP | -0.254 |
| RRIRERPPRLPRPRPRPLQMPRP | -0.0246 |
| RRIRERPPRLPRPRPRPLQTPRP | 0.22 |
| RRIRERPPRLPRPRPRPLQWPRP | 0.499 |
| RRIRERPPRLPRPRPRPLTCPRP | -0.149 |
| RRIRERPPRLPRPRPRPLTPPRP | -0.123 |
| RRIRERPPRLPRPRPRPLTSPRP | -0.00875 |
| RRIRERPPRLPRPRPRPLVWPRP | 0.339 |
| RRIRERPPRLPRPRPRPLWVPRP | -0.109 |
| RRIRERPPRLPRPRPRPLYKPRP | -0.769 |
| RRIRERPPRLPRPRPRPMCGPRP | -0.0439 |
| RRIRERPPRLPRPRPRPMGHPRP | -0.298 |
| RRIRERPPRLPRPRPRPMLHPRP | -0.542 |
| RRIRERPPRLPRPRPRPMLSPRP | -0.376 |
| RRIRERPPRLPRPRPRPMQGPRP | -0.0783 |
| RRIRERPPRLPRPRPRPMQNPRP | 0.168 |
| RRIRERPPRLPRPRPRPMQSPRP | 0.0874 |
| RRIRERPPRLPRPRPRPMRKPRP | -0.0645 |
| RRIRERPPRLPRPRPRPMRLPRP | 0.472 |
| RRIRERPPRLPRPRPRPMTYPRP | -0.121 |
| RRIRERPPRLPRPRPRPMWVPRP | 0.292 |

| Sequence | shrunken log2 fold change |
| --- | --- |
| RRIRERPPRLPRPRPRPMYHPRP | -0.594 |
| RRIRERPPRLPRPRPRPMYSPRP | -0.552 |
| RRIRERPPRLPRPRPRPNCPPRP | -0.409 |
| RRIRERPPRLPRPRPRPNCWPRP | 0.659 |
| RRIRERPPRLPRPRPRPNDHPRP | -0.622 |
| RRIRERPPRLPRPRPRPNIYPRP | -0.538 |
| RRIRERPPRLPRPRPRPNKIPRP | -0.642 |
| RRIRERPPRLPRPRPRPNKLPRP | -0.596 |
| RRIRERPPRLPRPRPRPNLEPRP | -0.228 |
| RRIRERPPRLPRPRPRPNLGPRP | -0.161 |
| RRIRERPPRLPRPRPRPNLMPRP | -0.665 |
| RRIRERPPRLPRPRPRPNMYPRP | -0.976 |
| RRIRERPPRLPRPRPRPNNKPRP | -0.849 |
| RRIRERPPRLPRPRPRPNPHPRP | -0.234 |
| RRIRERPPRLPRPRPRPNRPPRP | -0.123 |
| RRIRERPPRLPRPRPRPNRVPRP | -0.00226 |
| RRIRERPPRLPRPRPRPNTSPRP | 0.37 |
| RRIRERPPRLPRPRPRPNVCPRP | -0.382 |
| RRIRERPPRLPRPRPRPNYHPRP | -0.626 |
| RRIRERPPRLPRPRPRPPCAPRP | -0.0458 |
| RRIRERPPRLPRPRPRPPCCPRP | 0.00664 |
| RRIRERPPRLPRPRPRPPCIPRP | -0.163 |
| RRIRERPPRLPRPRPRPPCSPRP | -0.258 |
| RRIRERPPRLPRPRPRPPDIPRP | -0.225 |
| RRIRERPPRLPRPRPRPPEHPRP | 0.114 |
